Experimental data from patent publication US20190041401A1, “Methods of Treating Subjects having Severe and/or Persistent Asthma” (National Jewish Health, priority 2015, published 2019).

Columns and labels:
MEK^low population = test: Sensitivity of MEK^low CD4 population to dexamethasone-induced cell death; assay type: cell-based, human; settings: BAL CD4 T cells, MEK^low (MFI 10)
Text: FIGS. 5A-5H show the preferential expression of dual-positive TH2/TH17 cells in the BAL MEK^high CD4 T-cell population. FIGS. 5A and 5B, show the sensitivity of MEK^high and MEK^low CD4 populations to dexamethasone-induced cell death. Data are presented as percentages and absolute cell counts (in parentheses) per boxed area. […] FIGS. 5E and 5F show expression of dual-positive TH2/TH17 cells in MEK^high and MEK^low BAL CD4 T-cell populations. FIGS. 5G and 5H show the comparison of expression of dual-positive IL-4/IL-17 (FIG. 5G) and pSTAT3/pSTAT6 (FIG. 5H) cells in MEK^high and MEK^low cell populations.
Patients were allowed to continue their routine medication. Bronchoscopy and BAL were performed, as described previously (Good J T Jr, et al. Refractory asthma: importance of bronchoscopy to identify phenotypes and direct therapy. Chest 2012; 141:599-606). BAL fluid was processed immediately. Cells were isolated by means of centrifugation. Supernatant fluid was placed into aliquots in small samples and frozen. Cells were either cultured or fixed immediately in 4% paraformaldehyde and processed for flow cytometry. […]
Cells were stained with the following antibodies. […] This was detected with an Alexa Fluor 488-labeled anti-rabbit secondary antibody. […] Flow cytometric data were analyzed with FlowJo software (Tree Star, Ashland, Ore). […]

[1] = system: human lung epithelial cell line A549; test: IL-33 mRNA induction in A549 cells (real-time PCR); assay type: cell-based; settings: cytokine treatment for 72 hours, normalized to GAPDH
Experimental: (§1) FIGS. 18A-18J show the role of IL-33 in the persistence of asthma. FIG. 18A, A549 cells were cultured in medium alone or with IL-33 ([…]), IL-1b (2 ng/mL), IL-4 (10 ng/mL), IL-13 (20 ng/mL), IL-17 (10 ng/mL), TNF (2 ng/mL), IFN-γ (10 ng/mL), or IFN-γ plus TNF (same concentrations) for 72 hours, and then mRNA was analyzed for IL-33 normalized to glyceraldehyde-3-phosphate dehydrogenase (GAPDH). *P<0.05 and **P<0.01. There were 4 to 8 mice per group. FIGS. 18B-18E show the direct effect of IL-33 on airway hyperreactivity, lung ILCs, and autoinduction. […] IN, Intranasal. […] The change in RL with the 25-mg dose of methacholine is shown (n=5 per group). *P<0.05.
Immediately after flexiVent analysis, lung sections were collected in RIPA buffer (50 mmol/L Tris [pH 7.4], 150 mmol/L NaCl, 1 mmol/L EDTA, 1 mmol/L NaF, 1 mmol/L Na3VO4, and 0.1 mmol/L phenylmethylsulfonyl fluoride) containing protease and phosphatase inhibitors and homogenized. Lysed samples were subjected to 10% SDS-PAGE, transferred to a polyvinylidene difluoride membrane, and then immunoblotted with primary antibodies (IL-33 [R&D Systems], tubulin [H-235], and b-actin [Santa Cruz Biotechnology, Dallas, Tex]). After washing, the membranes were incubated with a horseradish peroxidase-conjugated secondary antibody. After additional washing, the membranes were developed with ECL reagent, as previously described (Gorska et al. 2007). A549 cell culture A549 cells were cultured in RPMI in 10% FBS (HyClone; Thermo Scientific, Waltham, Mass.) and 1% penicillin/streptomycin (Gibco, Carlsbad, Calif.) and maintained at 378C in a humidified 5% CO2 incubator. All cytokines were purchased from PeproTech (Rocky Hill, N.J.). In one experiment cells were treated with medium, IL-1b (2 ng/mL), IL-4 (10 ng/mL), IL-13 (20 ng/mL), IL-17 (10 ng/mL), IL-33 (20 ng/mL), TNF (2 ng/mL), IFN-g (10 ng/mL), and TNF (2 ng/mL) plus IFN-g (10 ng/mL) for 72 hours. Cellular RNA was analyzed for mRNA for IL-33 and IL-33R. In a second experiment cells were pretreated for 24 hours with medium, IL-1b (2 ng/mL), IL-4 (10 ng/mL), IL-13 (20 ng/mL), IL-17 (10 ng/mL), TNF (2 ng/mL), or IFN-g (10 ng/mL) before stimulation for 72 hours with IL-33 (20 ng/mL). Cellular RNAwas analyzed for mRNA for IL-33. In a third experiment cells were treated for 24 hours with DRA (5 μg/mL dust mite, 15 μg/mL ragweed, and 5 μg/mL Aspergillus species). Cellular RNA was analyzed for mRNA for IL-33. In a fourth experiment cells were treated for 24 hours with IL-13 (20 ng/mL) and ATP, and the supernatant was collected and analyzed for IL-33 levels by means of ELISA, according to the manufacturer's instructions (R&D systems). […]

A549 cells [2] = test: IL-33 autoinduction in A549 cells after cytokine pretreatment; assay type: cell-based, human; settings: pretreated 24 hours with cytokine, then 72 hours with IL-33 (20 ng/mL)
Experimental: as §1
(§2) Immediately after flexiVent analysis, lung sections were collected in RIPA buffer (50 mmol/L Tris [pH 7.4], 150 mmol/L NaCl, 1 mmol/L EDTA, 1 mmol/L NaF, 1 mmol/L Na3VO4, and 0.1 mmol/L phenylmethylsulfonyl fluoride) containing protease and phosphatase inhibitors and homogenized. […] Cellular RNA was analyzed for mRNA for IL-33 and IL-33R. […] Cellular RNAwas analyzed for mRNA for IL-33. […] Cellular RNA was analyzed for mRNA for IL-33. In a fourth experiment cells were treated for 24 hours with IL-13 (20 ng/mL) and ATP, and the supernatant was collected and analyzed for IL-33 levels by means of ELISA, according to the manufacturer's instructions (R&D systems). […]

A549 cells [3] = test: Cytokine induction of IL-33R mRNA in A549 cells; assay type: cell-based, human; settings: cytokine treatment for 72 hours
Experimental: as §1, §2

C57Bl/6 mice = test: Intranasal IL-33 administration, outcomes after 15 days; assay type: in vivo, mouse
Experimental: as §1
FIG. 27A, Effect of IL-13 on IL-33 secretion. A549 cells were treated overnight with medium or IL-13 (20 ng/mL) and ATP ([…]), and the released IL-33 was measured by using ELISA (n=6). *P=0.04. FIGS. 27B-27E, Direct effect of IL-33 on airway hyperreactivity and lung ILCs. C57Bl/6 mice were treated intranasally for 3 consecutive days with 400 ng per dose of IL-33. Outcome measures were evaluated 15 days after final exposure.
Measurement methodologies have been explained in depth in Goplen et al. (Goplen N, et al. Combined sensitization of mice to extracts of dust mite, ragweed, and Aspergillus species breaks through tolerance and establishes chronic features of asthma. J Allergy Clin Immunol 2009; 123:925-32.e11). Briefly, mice were anesthetized with ketamine (180 mg/kg), xylazine (9 mg/kg), and acepromazine (4 mg/kg). After loss of footpad pinch reflex, a tracheotomy was performed, and the mouse was attached with an 18-gauge cannula to a small-animal ventilator with a computer-controlled piston (FlexiVent; SCIREQ, Montreal, Quebec, Canada). Mice were ventilated at a frequency of 90 breaths/min with a tidal volume of 20 mL/kg during nebulization and otherwise with a frequency of 150 breaths/min with a tidal volume of 20 mL/kg while breathing against an artificial positive endexpiratory pressure of 2.5 to 3 cm H2O. Lungs were inflated to total lung capacity twice to standardize volume history. Resistance measurements were then taken to establish baselines for total lung resistance and at each methacholine dose. Group averages were expressed as fold increases in baseline resistance (means+SEMs).
Inflammation was quantified by using Metamorph image acquisition and analysis software on H&E-stained lung sections at 20× magnification, as described in Goplen et al. 2009. Airway epithelial hypertrophy and peribronchial smoothmuscle hypertrophyweremeasured as the area of epithelial or smoothmuscle per circumference of airway basement membrane. Airway inflammation was measured as the area of inflammatory infiltrates as a percentage of the total field. A minimum of 5 airways per mouse and 5 to 9 mice per group were quantified. Images were acquired on a Nikon Eclipse TE2000-U microscope by using 320 dry lenses at room temperature through a Diagnostics Instruments camera model #4.2 with Spot software 5.0 (Diagnostic Instruments, Inc, Sterling Heights, Mich.). H&E sections were mounted with Permount medium (Thermo Fisher Scientific, Inc, Waltham, Mass.). Images were adjusted for brightness and contrast to improve viewing.
Lungs were perfused with saline, and single-cell suspensions of lung cells were acquired by using mechanical mincing of lungs followed by digestion at 37° C. for 45 minutes in RPMI with 10% FBS, 1% penicillin/streptomycin, and collagenaseA (1 mg/mL). Cell suspensions were agitated at room temperature for 10 minutes in RPMI with 100 U/mL DNAse I before filtration through 40-mm filters and red blood cell lysis. Single-cell suspensions were subsequently fixed in 4% paraformaldehyde for flow cytometric analysis.
Mouse ILC2s. For mouse flow cytometric staining, all conjugate antibodies were purchased from BioLegend (San Diego, Calif.), unless otherwise stated. Mouse lung digest cells were fixed with 4% paraformaldehyde and incubated with 10% donkey serum and 1% 2.4G2. […]

[4] = intranasal, 400 ng per dose for 3 days, 15 days after
[5] = intranasal, 3 consecutive days, 400 ng per dose, 15 days after

C[C@@H]1C[C@H]2[C@@H]3CCC4=CC(=O)C=C[C@]4(C)[C@@]3(F)[C@@H](O)C[C@]2(C)[C@@]1(O)C(=O)CO [Dexamethasone, dexamethasone]
cell count decrease after dexamethasone treatment, MEK^low CD4 T cells (MEK^low population): 2.7 fold

IL-17: cytokine purchased from PeproTech, 10 ng/mL on A549 cells
induction of IL-33 mRNA [1]: directly induced IL-33

IL-113: probably IL-1b cytokine (PeproTech, 2 ng/mL on A549 cells), misprinted
IL-33 autoinduction after preincubation with cytokine (A549 cells [2]): unable to facilitate IL-33 autoinduction | induction of IL-33R mRNA (A549 cells [3]): strong inducer of IL-33R

B1: IL-4: cytokine purchased from PeproTech, 10 ng/mL on A549 cells (protein, UniProt P05112 25-153, looked up)
Interleukin-4: HKCDITLQEIIKTLNSLTEQKTLCTELTVTDIFAASKNTTEKETFCRAATVLRQFYSHHEKDTRCLGATAQQFHRHKQLIRFLKRLDRNLWGLAGLNSCPVKEANQSTLENFLERLKTIMREKYSKCSS
induction of IL-33 mRNA [1]: directly induced IL-33

B2: IL-33: interleukin-33 cytokine, given intranasally to mice or added to A549 cells (protein, UniProt Q8BVZ5 1-266, looked up)
Interleukin-33: MRPRMKYSNSKISPAKFSSTAGEALVPPCKIRRSQQKTKEFCHVYCMRLRSGLTIRKETSYFRKEPTKRYSLKSGTKHEENFSAYPRDSRKRSLLGSIQAFAASVDTLSIQGTSLLTQSPASLSTYNDQSVSFVLENGCYVINVDDSGKDQEQDQVLLRYYESPCPASQSGDGVDGKKLMVNMSPIKDTDIWLHANDKDYSVELQRGDVSPPEQAFFVLHKKSSDFVSFECKNLPGTYIGVKDNQLALVEEKDESCNNIMFKLSKI
induction of IL-33 mRNA [1]: capable of autoinduction | persistence of airway hyperreactivity and airway inflammation (C57Bl/6 mice; after intranasal IL-33, 400 ng per dose for 3 days): 2 weeks | IL-51 ILC2 numbers (C57Bl/6 mice; [4]): increased | number of lung IL-131 ILC2s (C57Bl/6 mice; [4]): increased | total number of IL-51 and IL-131 lung cells (C57Bl/6 mice; [4]): increased | airway hyperreactivity (C57Bl/6 mice; [5]): induced airway hyperreactivity | airway inflammation (C57Bl/6 mice; [5]): mild airway inflammation | IL-33 production (autoinduction) in lung cells (C57Bl/6 mice; pro-surfactant protein C-positive epithelial cells and CD11b+ hematopoietic cells, 2 weeks after intranasal IL-33): persistent IL-33 production was observed
